Measurements reported in US7579186 (Amgen, dated 2009).

B1: human anti-human TβRII monoclonal antibody TR4C175 (antibody, V domains shown)
VH: EVQLVESGGGLVKPGGSLRLSCAASGFTFSSFSMNWVRQAPGKGLEWVSSISSSSSYIYYTDSVKGRFTISRDNAKNSLYLQMNSLRAEDTAVYYCARGYWGFDYWGQGTLVTVSS
VL: DIQMTQSPSSLSASVGDRVTITCRASQGIRNDLGWYQQKPGKAPKRLIYAASSLQSGVPSRFSGSASGTEFTLTISSLQPEDFATYYCLQHNSNPLTFGGGTKVEIKR
notes: Human IgG4/kappa purified from hybridoma supernatant (transgenic mouse); VH gene 3-21 (DP-77), VL gene A30; The stated signal residues must be removed from the entries; also called Clone TR4C175; TRC175
B2: human anti-human TβRII monoclonal antibody TR4D455 (antibody, human IgG4, V domains shown)
VH: EVQLVQSGAEVKKPGESLKISCKGSGYSFTSYWIGWVRQMPGKGLEWMGIIYPGDSDTRYSPSFQGQVTISADKSISTAYLQWSSLKASDTAMYYCARVGGCSGGSCYLWGQGNLVTVSS
VL: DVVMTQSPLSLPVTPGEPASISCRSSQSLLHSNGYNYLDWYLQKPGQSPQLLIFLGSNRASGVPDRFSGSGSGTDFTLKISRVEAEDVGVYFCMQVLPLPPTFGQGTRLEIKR
notes: Human IgG4/kappa purified from hybridoma supernatant; VH gene 5-51 (DP-73), VL gene A19 (DPK-15); The stated signal residues must be removed from the entries; also called Clone TR4D455
B3: commercially available soluble recombinant human TβRII (R&D) (receptor, UniProt P37173 23-159, looked up)
chain: TIPPHVQKSVNNDMIVTDNNGAVKFPQLCKFCDVRFSTCDNQKSCMSNCSITSICEKPQEVCVAVWRKNDENITLETVCHDPKLPYHDFILEDAASPKCIMKEKKKPGETFFMCSCSSDECNDNIIFSEEYNTSNPD
notes: Bought product; also called standard substance

Key:
[1] = biological target: T1, rat TβRII expressed on the cell surface of rat kidney-derived fibroblast cell line NRK-49F (rat, UniProt P38438 24-567); test: flow cytometry on rat kidney-derived fibroblast cell line NRK-49F, antibody at 5 µg/ml, biotin-labeled anti-human immunoglobulin (Fc) antibody and streptavidin-PE [d]
T1 construct: whole, on cells
T1 sequence (looked up): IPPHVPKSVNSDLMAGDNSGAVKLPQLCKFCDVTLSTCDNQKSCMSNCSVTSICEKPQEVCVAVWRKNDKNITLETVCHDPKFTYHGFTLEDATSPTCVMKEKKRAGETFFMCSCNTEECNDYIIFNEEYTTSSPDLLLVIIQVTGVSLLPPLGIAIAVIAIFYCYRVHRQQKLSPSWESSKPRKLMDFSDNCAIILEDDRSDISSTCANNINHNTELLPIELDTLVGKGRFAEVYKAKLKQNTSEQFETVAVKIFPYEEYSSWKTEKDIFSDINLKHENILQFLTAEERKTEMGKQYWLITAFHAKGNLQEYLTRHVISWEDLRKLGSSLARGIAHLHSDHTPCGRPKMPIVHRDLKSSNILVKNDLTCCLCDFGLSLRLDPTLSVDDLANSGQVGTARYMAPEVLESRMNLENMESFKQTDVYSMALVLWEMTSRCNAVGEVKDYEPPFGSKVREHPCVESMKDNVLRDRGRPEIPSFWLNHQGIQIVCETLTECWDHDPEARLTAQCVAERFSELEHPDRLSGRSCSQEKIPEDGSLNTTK
Experimental: (§1) Further, similarly, the reactivity against rat TβRII of each of the various human anti-human TβRII monoclonal antibodies was analyzed by cell staining (by flow cytometry) using rat kidney-derived fibroblast cell line NRK-49F (ATCC CRL-1570) expressing rat TβRII on cell surface.
(§2) Each of the human anti-human TβRII monoclonal antibodies of the present invention or commercially available goat anti-human TβRII polyclonal antibody (R&D) (300 μl, 5 μg/ml) (diluted with phosphate buffer containing 0.1% BSA) was added to the respective cells (1 to 2 ×10^4 cells). The mixtures were incubated at 4° C. for one hour, and then centrifuged (at 1,500 rpm for three minutes). The supernatants were discarded, and the cells were washed twice with phosphate buffer. The biotin-labeled anti-human immunoglobulin (Fc) antibody (200 μl; American Qualex International Inc.) was added to the samples containing the human antibodies. The biotin-labeled anti-goat immunoglobulin antibody (200 μl; Amersham Pharmacia) was added to the samples containing the goat antibody. The samples were incubated at 4° C. for one hour.
(§3) Then, each sample was centrifuged (at 1,500 rpm for three minutes), and the supernatant was discarded. […] The samples were fluorescently analyzed with FACStar fluorescence-activated cell sorter (Becton Dickinson) (fluorescence wavelength: a DF585/42 filter, excitation wavelength: 488 nm).

[2] = biological target: T2, purified soluble recombinant human TβRII (extracellular domain of human TGF-β type II receptor, prepared in … (human, UniProt P37173 23-159)); test: SPR (Biacore X), soluble TβRII immobilised on the chip, antibody injected
T2 construct: The range 1-159 is as printed; also called purified human soluble TβRII; purified soluble human TβRII
Experimental: HBS buffer (containing 0.01 M HEPES, 0.15 M NaCl, 3 mM EDTA, and 0-0.005% Detergent P20, pH 7.0) was injected through a flow cell-1 attached to the kit at a flow rate of 5 μl/min. Then, 35 μl of a solution consisting of 0.005 M NHS (N-hydroxysuccinimide) and 0.2 M EDC (N-ethyl-N'-(dimethylaminopropyl)carbodiimide) was injected to activate the carboxyl groups of the CM coated on the sensor chip.
Then, 70 μl of purified soluble human TβRII (30 μg/ml; dissolved in 10 mM sodium acetate buffer (pH 5.0)) prepared in Example 2 was injected over the chip to be immobilized on the sensor chip.
Phosphate buffer was injected to the flow cell (sensor chip) at a flow rate of 20 μl/minute, and each of the purified human anti-human TGF-β type II receptor monoclonal antibody prepared in the above Example (40 to 100 μg/ml, 60 μl) was added thereto.

[3] = biological target: T1, rat TβRII expressed on the cell surface …; test: flow cytometry on rat kidney-derived fibroblast cell line NRK-49F, antibody at 5 µg/ml, biotin-labeled anti-human immunoglobulin (Fc) antibody and streptavidin-PE [f]
Experimental: as §1, §2, §3

[4] = biological target: T3, goat anti-human TβRII polyclonal antibody (R&D); test: sandwich ELISA: goat anti-human TβRII polyclonal antibody coated, soluble TβRII titrated, detection with the biotin-labeled goat anti-human TβRII polyclonal antibody and streptavidin-β-galactosidase (fluorescence)
T3 construct: Polyclonal reagent; also called anti-human soluble TβRII polyclonal antibody (R&D); commercially available anti-human TβRII polyclonal antibody
Experimental: Establishment of a Quantitative Method with Sandwich ELISA for Human Soluble TβRII <1-1> Establishment of a Sandwich ELISA System to Quantify Soluble Recombinant Human TβRII Goat anti-human TβRII polyclonal antibody (R&D) was diluted with phosphate buffer, and added to each well of a 96-well ELISA microplate (Corning) at a concentration of 0.1 μg/50 μl/well. The plate was incubated at room temperature for one hour to allow adsorption of the polyclonal antibody.
The assay sample was added to each well of the antibody-immobilized microplate (50 μl/well), and the plate was incubated at room temperature for one hour. Then, the microplate was washed three times with phosphate buffer containing 0.1% Tween20. Biotin-labeled goat anti-human TβRII polyclonal antibody (R&D) (diluted with phosphate buffer containing 1% BSA and 0.1% Tween20) was then added to each well at a concentration of 0.025 μg/50 μl/well. The plate was incubated at room temperature for one hour.
A calibration curve was prepared with the sandwich ELISA established in Example <1-1> using commercially available soluble recombinant human TβRII (R&D) as a standard.

Binder	binding result [1]	Kd [2]	koff [2]	binding result [3]	EC50 (read off the curve) [4]
B1	binds	51 nM	0.014 s⁻¹	–	–
B2	–	3.4 nM	0.00012 s⁻¹	binds	–
B3	–	–	–	–	~2 ng/mL
